Assay results published in patent US20250242023A1 (published 2025).

B1: 7431 TCR (TCR, V domains shown)
Valpha: GDSVTQTEGPVTVSESESLIINCTYSATSIAYPNLFWYVRYPGEGLQLLLKVITAGQKGSSRGFEATYNKETTSFHLQKASVQESDSAVYYCALGPDTNAYKVIFGKGTHLHVLP
Vbeta: DTTVKQNPRYKLARVGKPVNLICSQTMNHDTMYWYQKKPNQAPKLLLFYYDKILNREADTFEKFQSSRPNNSFCSLYIGSAGLEYSAMYLCASSRGANTEVFFGKGTRLTVV
B2: 1045 TCR (TCR, V domains shown)
Valpha: GDSVTQTEGPVTVSESESLIINCTYSATSIAYPNLFWYVRYPGEGLQLLLKVITAGQKGSSRGFEATYNKETTSFHLQKASVQESDSAVYYCALGLDYANKMIFGLGTILRVRP
Vbeta: DTTVKQNPRYKLARVGKPVNLICSQTMNHDTMYWYQKKPNQAPKLLLFYYDKILNREADTFEKFQSSRPNNSFCSLYIGSAGLEYSAMYLCASSNPQDTQYFGPGTRLLVL

Assays:
[1] = biological target: T1, mesothelin (MsIn), murine peptide on H-2Db (mouse); assay: cytokine release
T1 peptide: GQKMNAQAI

[2] = biological target: T1, mesothelin (MsIn), murine peptide on …; assay: multimer staining
Description: Flow cytometry: Mononuclear cells were stained with MsIn₄₀₆₋₄₁₄:H-2D^b-APC or -BV421 tetramer (1:100) in the presence of 1:100 Fc block (αCD16/32, Tonbo), and monoclonal antibodies diluted 1:100 in FACs Buffer (2% BSA+PBS) or (2.5% FBS+PBS+1% NaN₃) and specific to CD45 (30F-11, Biolegend), CD8a (53-6.7, Tonbo), CD44 (IM7, BD Biosciences), CD62L (MEL-14, Biolegend), CD69 (H1.2F3, BD Biosciences), CD25 (PC61, BD Biosciences), Vβ9 (MR10-2, Biolegend), CD3e (145-2C11, BD Biosciences), CD4 (GK1.5, BD Biosciences), and/or TCRβ (h57-597, eBiosciences) in the presence of live/dead stain (Tonbo Ghost dye in BV510 or APC ef780). Cells were fixed using Foxp3 transcription factor reagent (Tonbo), for 30 minutes at 4° C., washed and intracellular stained with aKi67 (B56, BD Biosciences) and/or Foxp3 (3G3, Tonbo) diluted 1:100 in Fix/Perm buffer (Tonbo) and stained overnight. The next day, cells were washed 2× with perm wash buffer and resuspended in FACs buffer or 0.4% PFA for 15 minutes at 4° C. Cells were resuspended in FACs buffer and Countbright Absolute Counting Beads (Thermo Fisher). Cells were acquired with a Fortessa 1770 flow cytometer and Facs Diva software (BD Biosciences). Data were analyzed using FlowJo software (version 10). ViSNE analysis was performed by gating on total live T cells with default settings of 1000 iterations, 30 perplexity and theta of 0.5 using Cytobank software.

| Binder | binding result [1] | binding result [2] |
| --- | --- | --- |
| B1 | recognises | – |
| B2 | – | recognises |
